Our source for the Binding activity (absorbance values is patent US20160200799A1.

The chains are these.
B1: Group 1 representative clone F080-227, Fab-cp3-type antibody (Fab, V domains shown)
VH: QVQLQESGAEVKKPGSSVKVSCKASGGIFRRNAISWVRQAPGQGLEWMGGIIAIFGTANYAQKFQGRVTITADESTSTVYMELSSLRPEDTAVYYCARGPNYYENFFDYWGQGTLVTVSS
VL: DIVMTQSPSSLSASVGDRLDLTCRASQDIANSLAWYKQRPGKAPELLVFGASRLEGGVPSRFSGTRAGTDFTLTISSLQPEDLGTYFCQQYFSFPRTFGQGTTLDLR
B2: Group 51 representative clone F083-302, Fab-cp3-type antibody (Fab, V domains shown)
VH: QVQLVQSGAEVKKPGSSVKVSCEASGATFSSNAFSWVRQAPGQGPEWMGGIITMFRKAEYAQKFQGRVTITAGELGSTAYMEVRSLTFEDTAVYYCARHSGYHLIGYFDSWGQGTLVTVSS
VL: QSVLTQPPSVSAAPGQKVTISCSGTTSNIGNNYVSWYQQLPGAAPKLLIYDNNKRPSGIPDRFSGSKSDTSATLGITGLQTGDEADYYCGTWVSSLSVWVFGGGTKLTVLG
B3: Group 43 representative clone F081-007, Fab-cp3-type antibody (Fab, V domains shown)
VH: QVQLQQSGAEVKKPGSSVKVSCKASGGIFRKNAISWVRQAPGQGLEWMGGISAIFGTANYAQKFQGRVTITADESSNTVYMDLSRLRSEDTAIYYCASHPTYHFDKSGYRFDSWGQGTLVTVSS
VL: B2 VL with T25S, T26S, A43T, D69G, V93D, V98A, W99G
B4: Group 57 representative clone F083-103, Fab-cp3-type antibody (Fab, V domains shown)
VH: QVQLQQSGADVKKAGSSVKVSCKASGRTFGNYAISWVRQAPGQGLEWMGGITPIFGAANYAQKFQGRVTISADLSTRMVYMDLSSLRSDDTAFYYCAGHPTYHYGSAMDYWGQGTLVTVSS
VL: QSVLTQPPSVSAAPGQKVTITCSGSSSNIGNNYVSWYQQLPGTAPKLLISEGSNRPSGIPDRFSGSKSGTSATLGITGLQTGDEATYYCATWDDSLSVVLFGGGTRLTVLS
B5: Group 59 representative clone F083-351, Fab-cp3-type antibody (Fab, V domains shown)
VH: B4 VH with Q5V, T101M
VL: QSVLTQPPSASGTPGQRVSISCFGSRSNVGSSSVNWYQQLPGRAPKLLIQRNDQRPSGVPDRFSGSKSGTSASLAISGLQSDDESTYYCAAWDDSVKSVVFGGGTQLTVLG
B6: Group 80 representative clone F083-373, Fab-cp3-type antibody (Fab, V domains shown)
VH: B4 VH with Q5V, A14P, K19R, R77T, H103Y, A107P
VL: EIVLTQSPSSLSASVGDRVTITCRASQSIATYLNWYQQKPGKAPNLLIYAASNLQSGVPSRFSGSGSGTDFTLTISSLQPEDFATYVCLQSYSATLTFGGGTKVEIK
B7: Group 63 representative clone F083-336, Fab-cp3-type antibody (Fab, V domains shown)
VH: QVQLQQSGAEVKQPGSSVKVSCKASGGIFRSNAISWVRQAPGQGLEWMGGIVALFGTANYAQKFQGRVTITADESTSTVYMELSSLRSEDTARYYCARNSGYHISGFYLDYWGQGTLVTVSS
VL: EIVLTQSPSSLSASVGDRVTITCRASQGISNYLAWYQQRPGKVPKLLIYTASTLLSGVPSRFSGGGSGTDYTLTISSLQPEDVATYYCQEYKSVPLTFGPGTKVEIK
B8: Group 62 representative clone F083-349, Fab-cp3-type antibody (Fab, V domains shown)
VH: QVQLVQSGAEVRKPGSSVKVSCKASGVIFIKFAISWVRQAPGQGLEWMGGIIPMFGTTNYAQKFQGRVTITADGSTNTVYMELSSLTSEDTAVYYCAKEEGYYYGSGPLDSWGQGTLVTVSS
VL: DIVMTQSPDFLSVSLGERVTINCKSSQTVLNRSNNKNYLAWYQKKPGQPPRLLLYWSSTRESGVPDRFSGSGSETDFALTITNLQAEDLAVYFCQQFYDMPVTFGGGTKLEIK
B9: Group 38 representative clone F082-338, Fab-cp3-type antibody (Fab, V domains shown)
VH: QVQLQESGAEVKKPGSSVKVSCKASGGPFRSHAISWVRQAAGQGLEWMGGITAVFGTANYAQKFQGRVTITADESTNIVSMELSSLRSEDTAIYYCARSLGYHTQYNGMDVWGQGTTVTVSS
VL: DVVMTQSPSSVSASVGDRVTITCRASQGISSWLAWYQQKPGKAPKLLIYAASSLQSGVPSRFSGSGSGTDFTLTISSLQPEDFATYYCQQANSFPITFGQGTRLEIK
B10: Group 65 representative clone F083-366, Fab-cp3-type antibody (Fab, V domains shown)
VH: QVQLVQSGSEVKKPGSSVKVSCKASRGIFSSYAISWVRQAPGQGLEWMGAVIPMFGTLKYAENFQGRITISADKSMSAAYMELSSLRSEDTAVYYCARNYYGSGTYFNDAFDIWGQGTMVTVSS
VL: QSVLTQPPSGSGAPGQRVTISCTGGNSNIGAGYDVNGYQQLPGKAPKLLIYGNNNRPSGVPDRFSGSKSGTSASLAITGLQVEDEAHYYCQSYDNGLSGSVFGGGTQLTVLG
B11: Group 58 representative clone F083-307, Fab-cp3-type antibody (Fab, V domains shown)
VH: QVQLQQSGADVKKPGSSVKVSCKASGGTFGNYAISWVRQAPGQGLEWMGGITPIFGPANYAQRFQGRVTISADISTRTAYMELSSLRSEDTAIYYCARHPTYYFGSAMEYWGQGTLVTVSS
VL: SYELTQPPSVSVAPGQTATITCGGDRIGTGPVHWYQQRPGRAPVLIIYGSTHRPSGIPERFSGSKSVNTATLSISGVGVGDEADYYCQVWDTSTAQPIVFGGGTKLTVLS
B12: Group 44 representative clone F081-008, Fab-cp3-type antibody (Fab, V domains shown)
VH: QVQLVQSGAEVKKPGSSVKVSCKASGGTFSSFSTYTISWVRQAPGQGLEWMGRSIPLLGITNYAQKFQGRVTITADISTSTAYMELSSLRSEDTAVYYCARYQSSDYYNSEYFQHWGQGTLVTVSS
VL: EIVLTQSPGTLSLSLGERVTLSCRASQNVGTNYLAWYQQKPGQAPRLLIYGASSRATGVPDRFSGSGSGTDFTLTISRLAPEDFAVYYCQQYSSSPLTFGGGTKLEIK
B13: Group 55 representative clone F083-305, Fab-cp3-type antibody (Fab, V domains shown)
VH: EVQLVESGAEVKKPGSSVKVSCKASGSIFSNYAISWVRQAPGQGLEWMGGIVPMFGTTRFAQKFQGRVTITADESRSTAYMELNNLISEDTAVYYCARAPLIYNWYFDLWGRGTLVTVSS
VL: EIVLTQSPSFVSASVGDRVSITCRASQGISSWLAWYQQKPGKAPRLLIYGASNLQSGVPSRFSGSGSGTDYTLTINSLQPEDFATYYCQQARTFPVTFGQGTKLEIK
B14: Group 56 representative clone F083-318, Fab-cp3-type antibody (Fab, V domains shown)
VH: B13 VH with E6Q, K23Q, S35N, M54I, V68L, S75P, F107Y
VL: B7 VL with R39K, T50A, L55Q, G65S, Y71F, E90K, K92N, V94A, L96H, E105D
B15: Group 64 representative clone F083-301, Fab-cp3-type antibody (Fab, V domains shown)
VH: QVQLVQSGAEVKKPGSSVKVSCKASGGIFNSNAISWVRQAPGQGLEWMGGIIGIFGTANYAQKFQGRVTIAADQSTNTVFMELSSLTSEDTAVYFCARSRGYSFGYGTDYFDYWGQGTLVTVSS
VL: DIVMTQSPSTLSASVGDRVTITCRASQSISSWLAWYQQAPGKAPKLLIYEASKLQSGVPSRFSATGSGTEFTLTIASLQPEDFAIYYCQHYEAYPFSFGPGTKLDVK

Changes are numbered by the printed parent chain.

In one test the target is Influenza virus A/New Caledonia/20/1999 (H1N1) (Influenza A virus A/New Caledonia/20/1999 (H1N1)). Put plainly: ELISA on coated viral particles.
Molecule B1 showed a Binding activity (absorbance at 492 nm) of 3.15.
In turn, B2 gave a Binding activity (absorbance at 492 nm) of 1.92.
In turn, B3 returned a Binding activity (absorbance at 492 nm) of 2.84.
The same measure, in the same setting: as for B4, the figure is 2.43.
Still for that read-out and setting: to B5 belongs 3.21; to B6, 1.39; to B7, 1.61.
Still for that read-out and setting: to B8 belongs 3.17.
B9 had a Binding activity (absorbance at 492 nm) of 3.01.
In turn, B10 yielded a Binding activity (absorbance at 492 nm) of 2.93.
As for B11, the Binding activity (absorbance at 492 nm) turned out to be 3.3.
Same read-out and setting: to B12 belongs 3.25; to B13, 3.07.
The same measure, in the same setting: to B14 belongs 3.01; to B15, 1.34.

For a further test, the target named is Influenza virus A/Panama/2007/1999 (H3N2) (Influenza A virus A/Panama/2007/1999 (H3N2)). Put plainly: ELISA on coated viral particles.
As to B1, the Binding activity (absorbance at 492 nm) was found to be 0.14.
B2 had a Binding activity (absorbance at 492 nm) of 0.23.
The same measure, in the same setting: to B3 belongs 0.14.
B4 had a Binding activity (absorbance at 492 nm) of 0.16.
In the case of B5, the Binding activity (absorbance at 492 nm) is 0.21.
B6 yielded a Binding activity (absorbance at 492 nm) of 0.13.
Turning to B7, the Binding activity (absorbance at 492 nm) is 0.15.
On the same count and under the same terms, as for B8, the figure is 0.15; as for B9, 0.13.
Same read-out and setting: to B10 belongs 0.18.
The molecule B11 yielded a Binding activity (absorbance at 492 nm) of 0.19.
Still for that read-out and setting: as for B12, the figure is 0.17; as for B13, 0.15; as for B14, 0.16.
Same read-out and setting: to B15 belongs 0.16.

The target of another test is Influenza virus A/Brisbane/59/2007 (H1N1) (Influenza A virus A/Brisbane/59/2007 (H1N1)). The experiment in a line: ELISA on coated viral particles.
The molecule B1 gave a Binding activity (absorbance at 492 nm) of 3.1.
As to B2, the Binding activity (absorbance at 492 nm) amounted to 2.
Still for that read-out and setting: to B3 belongs 2.72; to B4, 2.39.
B5 registered a Binding activity (absorbance at 492 nm) of 3.09.
Same read-out and setting: to B6 belongs 1.31; to B7, 1.89; to B8, 2.93.
B9 came in with a Binding activity (absorbance at 492 nm) of 2.93.
Same read-out and setting: as for B10, the figure is 2.84; as for B11, 3.04.
Still for that read-out and setting: as for B12, the figure is 2.89; as for B13, 2.88; as for B14, 2.85.
B15: the Binding activity (absorbance at 492 nm) is 1.44.

The next test addresses Influenza virus A/California/7/2009pdm (H1N1pdm) (Influenza A virus A/California/7/2009pdm (H1N1pdm)). The experiment in a line: ELISA on coated viral particles.
For the molecule B1, the Binding activity (absorbance at 492 nm) came to 2.95.
Regarding B2, the Binding activity (absorbance at 492 nm) is 1.55.
Take B3: the Binding activity (absorbance at 492 nm) is 2.33.
Same read-out and setting: to B4 belongs 1.82; to B5, 2.62.
Still for that read-out and setting: as for B6, the figure is 0.17; as for B7, 1.56; as for B8, 2.79.
Molecule B9 showed a Binding activity (absorbance at 492 nm) of 2.82.
Molecule B10 displayed a Binding activity (absorbance at 492 nm) of 1.13.
The same measure, in the same setting: as for B11, the figure is 2.37; as for B12, 0.43.
Still for that read-out and setting: as for B13, the figure is 1.29; as for B14, 0.71.
B15: the Binding activity (absorbance at 492 nm) turned out to be 0.46.
